IHC score data for one substance are collected here from patent publication US20250276077A1, “EPHA2 ANTIBODIES” (Immunome, Inc., priority 2022, published 2025).

Test [1] concerns the target Human EphA2 (human) (UniProt P29317). The experiment in a line: IHC/IF on frozen human tumor tissue: ANC.
Test [2] shares this target. As to the kind of experiment: IHC/IF on frozen human tumor tissue: CRC.
Test [3] has the same target. The experiment in a line: IHC/IF on frozen human tumor tissue: ESO.
For test [4] the target is unchanged. As to the kind of experiment: IHC/IF on frozen human tumor tissue: GAC.
Test [5] has the same target. As to the kind of experiment: IHC/IF on frozen human tumor tissue: HNC.
Test [6] shares this target. As to the kind of experiment: IHC/IF on frozen human tumor tissue: OVA.
For test [7] the target is unchanged. As to the kind of experiment: IHC/IF on frozen human tumor tissue: STS.
Test [8] has the same target. The experiment in a line: IHC/IF on frozen human tumor tissue: URO.
Test [9] shares this target. As to the kind of experiment: IHC/IF on frozen human tumor tissue: MELA.
For test [10] the target is unchanged. As to the kind of experiment: IHC/IF on frozen human tumor tissue: PANC.
For test [11] the target is unchanged. The experiment in a line: IHC/IF on frozen human tumor tissue: PROC.
Test [12] shares this target. The experiment in a line: IHC/IF on frozen human tumor tissue: TNBC.
For test [13] the target is unchanged. The experiment in a line: IHC/IF on frozen human tumor tissue: ER+ BRC.
The target is the same in test [14]. As to the kind of experiment: IHC/IF on frozen human tumor tissue: NSCLC-SQ.
For test [15] the target is unchanged. The experiment in a line: IHC/IF on frozen human tumor tissue: Her2+ BRC.
Test [16] has the same target. The experiment in a line: IHC/IF on frozen human tumor tissue: NSCLC-Adeno.
The target is the same in test [17]. The experiment in a line: IHC/IF on frozen human tumor tissue: RCC-papillary.
For test [18] the target is unchanged. As to the kind of experiment: IHC/IF on frozen human tumor tissue: RCC-clear cell.
Test [19] has the same target. The experiment in a line: IHC/IF on frozen human tumor tissue: UCEC-papillary.
Test [20] shares this target. As to the kind of experiment: IHC/IF on frozen human tumor tissue: UCEC-clear cell.
The target is the same in test [21]. As to the kind of experiment: IHC/IF on frozen human tumor tissue: UCEC-endometrioid.

In the case of MAB3035 (Gln25-Asn534) (antibody), the IHC score in the test with Human EphA2 (human) [1] is 2; with Human EphA2 (human) [2] it was 1; in the test with Human EphA2 (human) [3], 2; with Human EphA2 (human) [4], 1; with Human EphA2 (human) [5], 2; in the test with Human EphA2 (human) [6], 2. The IHC score stood at 1 with Human EphA2 (human) [7]; 1 in the test with Human EphA2 (human) [8]; 3 with Human EphA2 (human) [9]; 2 with Human EphA2 (human) [10]; 1 with Human EphA2 (human) [11]; 1 with Human EphA2 (human) [12]. For the same substance, the IHC score in the test with Human EphA2 (human) [13] turned out to be 1; with Human EphA2 (human) [14], 2; in the test with Human EphA2 (human) [15] it was 1; with Human EphA2 (human) [16], 2; with Human EphA2 (human) [17] it was 1; with Human EphA2 (human) [18], 1. The IHC score with Human EphA2 (human) [19], with Human EphA2 (human) [20] and with Human EphA2 (human) [21] was 2 each time.
